Data reported in patent US6867177B2, “CD39/ECTO-adpase as a treatment for thrombotic and ischemic disorders” (The Trustees of Columbia University in the City of New York, priority 1999, dated 2005).

What was measured:
[1] = system: murine platelets; assay: Murine platelet aggregation (aggregometry of platelet-rich plasma from treated mice); assay type: cell-based; conditions: for platelet aggregation response to ADP: ADP 2.5 or 10 μM, CD39 4 mg/kg, aspirin 5 mg/kg; for platelet aggregation response to ADP / platelet aggregation response to collagen / platelet aggregation response to sodium arachidonate: agent given to mice 45 minutes prior to harvest of blood; for platelet aggregation response to collagen: collagen 2.5 or 10 μg/mL; for platelet aggregation response to sodium arachidonate: sodium arachidonate 0.1 mM
Protocol: Preparation of Murine Platelets: Mice (untreated, treated with 4 mg/kg CD39, or treated with […]) were anesthetized and heparinized (10 U/g), prior to blood collection via cardiac puncture performed with 22 gauge, 1 cc syringe. Immediately following collection, 80 μl 3.8% trisodium citrate was added to each mL of blood. Blood from 6-8 mice was pooled in a 15 mL tube centrifuge tube (Flacon, polypropylene). Platelet-rich plasma (PRP) was prepared with an initial whole blood centrifugation (900 g, 3 min, 20° C., no brake), and a second centrifugation of PRP (100 g, 2 min) to eliminate residual erythrocytes and leukocytes. The stock suspension of PRP was maintained at room temperature. PRP platelet counts were 400-700×10^3 platelets per μl.
Platelet aggregation studies: PRP (200 μl) was pre-incubated (3 min, 37° C.) with 100 μl Tris-buffered saline (TSG) buffer (15 mM Tris, 134 mM NaCl, 5 mM glucose, pH 7.4) in an aggregometer cuvette (Lumiaggregometer; Chrono-Log, Havertown, Pa.). After the 3 min, 37° C. preincubation ≈5.0 C 10^5 platelets, platelet agonist (ADP, collagen, sodium arachidonate) were added at the concentration indicated. Total volumes were adjusted to 300 μl with TSG buffer, and the aggregation response recorded for 2-4 min. Agonists were prepared as 100× solution: ADP was in TSG buffer, collagen in acidified isotonic glucose ([…], Munchen, Germany), and sodium arachidonate in 0.85% saline. All aggregation studies were completed within two hours of blood collection.
Quantitation of Platelet Aggregation: Area under the curve was estimated by multiplying the height of the curve with its width at half height. The former was measured form pre-simulation baseline to the middle of the highest point of the curve. However, when curves were less than ⅓ of maximal height, the lowest point of the shape change portion of the curve was considered baseline. […] These criteria underestimate large aggregation responses, and overestimate small ones. Thus we knowingly underestimated the effects of compounds with great inhibitory capacity. This approach was preferred over one that could have overemphasized inhibitory potential.
Murine platelet aggregation: C57/6J BL mice (6-8 weeks) were obtained from Jackson Laboratories, Bar Harbor, Me.). Untreated mice, and mice treated with 4 mg/kg CD39, with 5 mg/kg aspirin or phosphate buffered saline, were anesthetized and heparinized (10 U/g), prior to blood collection via cardiac puncture; 80 μL 3.8% trisodium citrate was added to each mL of blood. Samples from 6-8 mice were pooled and platelet-rich plasma (PRP) prepared by centrifugation (900 g, 3 min, 20° C., followed by 100 g, 2 min to eliminate residual erythrocytes and leukocytes). PRP contained 400-700×10^3 platelets per μL. PRP (200 μL) was preincubated (3 min, 37° C.) with 100 μL Tris-buffered saline (TSG) buffer (15 mM Tris, 134 mM NaCl, 5 mM glucose, pH 7.4)^11,23,24 in an aggregometer cuvette (Lumiaggregometer; Chrono-Log, Havertown, Pa.). Platelet agonists (ADP, collagen (Hormon Chemie, Munchen, Germany), or sodium arachidonate (Nu-Check Prep, Elysian, Minn.)) were added at the final concentrations indicated. Aggregation responses were recorded for 2-4 min, and expressed as area under the curve (height times width at ½ height). All experiments were completed within two hours of blood collection.

[2] = system: stroke (focal cerebral ischemia and reperfusion); conditions: for postischemic cerebral perfusion (cerebral blood flow): laser Doppler, ischemic vs nonischemic hemisphere; for cerebral infarct volume: preoperatively administered, CD39 4 and 8 mg/kg, aspirin 5 mg/kg, 24 hours
[3] = Measurement of bleeding time (tail vein incision); assay type: in vivo; conditions: mice not subjected to other manipulation; intravenous
Protocol: Measurement of Bleeding Time: Bleeding times were measured in mice which were not subjected to experimental manipulation other than by receiving either vehicle (saline) or CD39 prepared in physiological saline and administered intravenously 5 minutes prior to the experiment. Following anesthesia, a standardized incision was made on the central dorsal tail vein, and the tail was then immersed in physiological saline at 37.5° C.

[4] = system: platelets; conditions: cited from earlier work
[5] = peptide affinity purified from CHO conditioned medium; cited from earlier work
[6] = system: stroke in CD39-/- mice
[7] = cited from earlier work
[8] = system: lung ischemia and reperfusion; assay: Mouse model of lung ischemia and reperfusion; assay type: in vivo, mice; conditions: CD39 8 mg/kg; 1 hour ischemia, 2 hour reperfusion, observation 1 hour; four experiments
Protocol: In these studies, murine ischemic reperfusion model was used. In the mouse model of lung ischemia, mice were initially anesthetized intraperitoneal with 0.1 mg/mouse weight (g) of ketamine and 0.01 mg/mouse weight (g) of xylazine, following by intraperitoneal continuous infusion of one third of the initial dose per hour using a syringe pump (model 100 series, KD Scientific Inc. Mass.). After ensuring appropriate depth of anesthesia, mice were intubated via tracheostomy and placed on a Harvard ventilator (tidal volume=0.75 mL, respiratory rate=120/min) with room air, followed by bilateral thoracotomy. The left hilum was cross-clamped for a period of 1 hour after which the cross-clamp was released. Reperfusion proceeded for 2 hours.
For all experiments, the surgical operator was blinded by a colleague in the laboratory to the specific substance being injected (vehicle or CD39, 8 mg/kg). Experimental procedures were as follows. […]

[9] = treatment either prior to, or up to 3 hours following stroke
[10] = control, CD39-/- and reconstituted CD39-/- mice

Molecule: CC(=O)Oc1ccccc1C(=O)O [aspirin, reference compound]
- platelet aggregation response to ADP [1]: strongly aggregated
- platelet reactivity to collagen at any collagen dose ([1]; any collagen dose): little effect
- platelet aggregation response to collagen [1]: strongly aggregated
- platelet aggregation response to sodium arachidonate [1]: abrogated
- postischemic cerebral perfusion (cerebral blood flow) [2]: did not improve
- cerebral infarct volume [2]: tendency to decrease cerebral infarct volume, the effect was not statistically significant
- bleeding time [3]: markedly increased

B1: CD39: recombinant soluble CD39 (SEQ ID NO:2): four apyrase domains, lacking the two transmembrane regions, IL-2 leader, expressed in CHO cells (protein, listed as Homo sapiens)
chain: TQNKALPENVKYGIVLDAGSSHTSLYIYKWPAEKENDTGVVHQVEECRVKGPGISKFVQKVNEIGIYLTDCMERAREVIPRSQHQETPVYLGATAGMRLLRMESEELADRVLDVVERSLSNYPFDFQGARIITGQEEGAYGWITINYLLGKFSQKTRWFSIVPYETNNQETFGALDLGGASTQVTFVPQNQTIESPDNALQFRLYGKDYNVYTHSFLCYGKDQALWQKLAKDIQVASNEILRDPCFHPGYKKVVNVSDLYKTPCTKRFEMTLPFQQFEIQGIGNYQQCHQSILELFNTSYCPYSQCAFNGIFLPPLQGDFGAFSAFYFVMKFLNLTSEKVSQEKVTEMMKKFCAQPWEEIKTSYAGVKEKYLSEYCFSGTYILSLLLQGYHFTADSWEHIHFIGKIQGSDAGWTLGYMLNLTNMIPAEQPLSTPLSHST
- platelet aggregation response to ADP [1]: completely abrogated
- platelet aggregation response to collagen [1]: attenuated
- platelet reactivity to higher doses of collagen ([1]; higher doses of collagen): do respond
- platelet reactivity to low-dose collagen ([1]; low-dose collagen): inhibited
- platelet aggregation response to sodium arachidonate [1]: did not inhibit the initial activation phase of platelet aggregation to arachidonate, but rapidly disaggregated platelets during the initial recruitment phase
- ADP-induced platelet aggregation in vitro [4]: blocked
- cerebroprotection ([2]; administered three hours after onset of stroke (8 mg/kg)): significant cerebroprotection
- platelet accumulation in the ipsilateral cerebral hemisphere ([2]; intravenously injected, 111In-labeled platelets, 24 hours of reperfusion): inhibited
- fibrin accumulation in the ipsilateral cerebral hemisphere ([2]; intravenously injected, fibrin immunoblot): inhibited
- postischemic cerebral perfusion (cerebral blood flow) [2]: improved
- intracerebral hemorrhage ([2]; mouse, in vivo): without an increase
- cerebral infarct volume [2]: dose-dependent diminution
- mortality [2, 9]: reduced
- neurological deficit [2, 9]: reduced
- apyrase activity [5]: potent apyrase activity
- cerebral infarct volume ([6]; CD39-/- mice reconstituted with CD39, 24 hours): markedly diminished
- intracerebral hemorrhage [6, 10]: did not differ between groups
- neurological deficit scores [6, 10]: did not differ between groups
- overall mortality [6, 10]: did not differ between groups
- bleeding time [3]: dose-dependent increase
- elimination half-time in mice [7]: 2 days
- mouse survival following functional removal of the contralateral (nonischemic) lung [8]: 100%
